In patent publication US20240200044:

How the values were obtained:
[1] = tested on: ATM-L TALEN L3-2 (in cells) A252T,L338S,Q505K,Q745P (full TALE construct numbering) (synthetic construct); test: cell_activity; conditions: U2OS
[2] = tested on: ATM-L TALEN L3-1 (in cells) A252T,Q505K,Q745P (full TALE construct numbering) (synthetic construct); test: cell_activity; conditions: U2OS
[3] = tested on: ATM-L TALEN L1-2 (A252T) A252T (full TALE construct numbering) (synthetic construct); test: cleavage_in_vitro; conditions: canonical 6.3% in same experiment
[4] = tested on: canonical ATM-R TALEN (synthetic construct); test: cleavage_in_vitro; conditions: 12 nM, 90 min, paired with canonical ATM-L

| Sequence | activity [2] | activity [1] | also measured |
| --- | --- | --- | --- |
| GGAAATGGGATACTGAGT (double strand) [OffA17 left half-site] | < 0.001 % indels | – | activity ([1]; HEK293 0.025%): < 0.001 % indels; activity [3]: 0.3 % cleavage |
| TAGATTGAAATGCTGTTT (double strand) [OffA23 left half-site] | < 0.001 % indels | < 0.001 % indels | – |
| TGAATAGGAAATATATTT (double strand) [OffA1 left half-site] | < 0.001 % indels | 0.002 % indels | – |
| TGAATTGAGAGAAGCATT (double strand) [OffA11 left half-site] | – | – | activity ([1]; not significant, HEK293 <0.001%): 0.002 % indels; activity ([2]; control 0.001%, not significant): 0.002 % indels |
| TGAATTGGGATGCTGTTT (double strand) [ATM left half-site on-target] | 7.04 % indels | – | activity ([1]; HEK293 23.26%): 7.97 % indels |
| TTTATTTTACTGTCTTTA (double strand) [ATM right half-site on-target (sense strand)] | – | – | activity [4]: 31.5 % cleavage |
